Test [1] has as its target USP20 zf-UBP domain (human) (UniProt Q9Y2K6). Nature of the test: fluorescence polarisation; displacement: serial dilution of the unlabelled peptide against the domain (at two-fold the KD of the FITC-labelled peptide) in complex with 10 nM FITC-labelled peptide; 50 mM phosphate buffer pH 7.4; room temperature; three technical replicates; sigmoidal dose-response fit.
For test [2], the target named is USP33 zf-UBP domain (human) (UniProt Q8TEY7). Described as above.
The target of test [3] is USP20 zf-UBP domain, tag cleaved (for FP) (human). As to the kind of experiment: fluorescence polarisation; displacement: unlabeled peptide titrated into the domain (at two-fold the KD of the FITC-labeled peptide) with 10 nM FITC-labeled peptide; 50 mM phosphate buffer pH 7.4, DTT, room temperature; estimated KD.
USP20 zf-UBP domain, tag cleaved (for FP) (human), sequence (Q9Y2K6 whole entry, the tested form may be a part): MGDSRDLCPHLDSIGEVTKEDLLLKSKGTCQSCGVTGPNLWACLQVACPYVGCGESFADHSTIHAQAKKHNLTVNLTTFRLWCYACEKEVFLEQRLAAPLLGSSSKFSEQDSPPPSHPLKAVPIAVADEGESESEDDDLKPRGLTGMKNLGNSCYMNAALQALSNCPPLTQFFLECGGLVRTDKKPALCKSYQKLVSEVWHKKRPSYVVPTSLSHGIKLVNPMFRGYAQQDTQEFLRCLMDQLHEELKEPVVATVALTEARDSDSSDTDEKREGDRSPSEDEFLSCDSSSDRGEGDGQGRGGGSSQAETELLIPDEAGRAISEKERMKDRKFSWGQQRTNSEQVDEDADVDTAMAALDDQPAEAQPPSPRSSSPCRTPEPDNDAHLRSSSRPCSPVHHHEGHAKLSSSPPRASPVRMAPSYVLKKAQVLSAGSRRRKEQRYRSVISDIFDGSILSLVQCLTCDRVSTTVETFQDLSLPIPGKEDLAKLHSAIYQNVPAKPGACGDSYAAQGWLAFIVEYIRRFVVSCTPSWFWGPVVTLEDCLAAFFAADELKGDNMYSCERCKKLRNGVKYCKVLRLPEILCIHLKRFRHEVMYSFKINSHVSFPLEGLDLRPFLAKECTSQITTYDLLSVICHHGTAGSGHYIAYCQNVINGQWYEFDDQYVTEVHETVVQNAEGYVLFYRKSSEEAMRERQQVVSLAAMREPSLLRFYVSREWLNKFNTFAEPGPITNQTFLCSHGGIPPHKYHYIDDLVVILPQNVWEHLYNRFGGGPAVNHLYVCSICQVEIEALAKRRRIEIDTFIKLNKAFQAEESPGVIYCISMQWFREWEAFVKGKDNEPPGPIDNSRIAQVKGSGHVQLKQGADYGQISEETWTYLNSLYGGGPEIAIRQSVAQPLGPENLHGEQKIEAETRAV
Test [4] deals with USP33 zf-UBP domain, tag cleaved (for FP) (human) (UniProt Q8TEY7). The description is as above.
USP33 zf-UBP domain, tag cleaved (for FP) (human), sequence (Q8TEY7 whole entry, the tested form may be a part): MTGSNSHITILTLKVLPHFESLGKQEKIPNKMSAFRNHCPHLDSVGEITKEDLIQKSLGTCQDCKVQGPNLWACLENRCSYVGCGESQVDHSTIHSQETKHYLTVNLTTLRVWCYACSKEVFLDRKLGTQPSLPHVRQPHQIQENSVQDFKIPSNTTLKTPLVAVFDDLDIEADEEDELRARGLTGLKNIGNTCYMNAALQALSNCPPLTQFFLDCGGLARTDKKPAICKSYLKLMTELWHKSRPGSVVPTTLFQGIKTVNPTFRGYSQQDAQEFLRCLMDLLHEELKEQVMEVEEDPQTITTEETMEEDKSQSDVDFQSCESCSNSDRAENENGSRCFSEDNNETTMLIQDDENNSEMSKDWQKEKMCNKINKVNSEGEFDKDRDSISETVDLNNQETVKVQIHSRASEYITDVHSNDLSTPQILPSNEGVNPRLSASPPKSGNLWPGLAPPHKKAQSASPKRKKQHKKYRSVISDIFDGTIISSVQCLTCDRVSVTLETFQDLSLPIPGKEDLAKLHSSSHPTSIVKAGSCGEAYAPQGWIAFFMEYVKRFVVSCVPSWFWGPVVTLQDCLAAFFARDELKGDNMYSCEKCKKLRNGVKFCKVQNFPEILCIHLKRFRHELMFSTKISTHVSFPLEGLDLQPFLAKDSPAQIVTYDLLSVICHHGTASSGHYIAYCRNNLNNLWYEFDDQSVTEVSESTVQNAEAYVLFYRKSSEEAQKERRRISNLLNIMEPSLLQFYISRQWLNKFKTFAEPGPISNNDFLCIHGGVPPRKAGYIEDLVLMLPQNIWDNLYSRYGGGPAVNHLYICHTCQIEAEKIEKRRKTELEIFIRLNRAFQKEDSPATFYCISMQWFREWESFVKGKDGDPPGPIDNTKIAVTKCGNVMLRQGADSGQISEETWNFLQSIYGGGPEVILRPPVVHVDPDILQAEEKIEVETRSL
Test [5] deals with USP11 DUSP-UBL tandem domain (human) (UniProt P51784). Nature of the test: fluorescence polarisation; displacement: serial dilution of the unlabelled peptide against the domain (at two-fold the KD of the FITC-labelled peptide) in complex with 10 nM FITC-labelled peptide; 50 mM phosphate buffer pH 7.4; room temperature; three technical replicates; sigmoidal dose-response fit. Background: Polarisation of emitted light reports the rotation of a fluorescent probe.
USP11 DUSP-UBL tandem domain (human), sequence (P51784 whole entry, the tested form may be a part): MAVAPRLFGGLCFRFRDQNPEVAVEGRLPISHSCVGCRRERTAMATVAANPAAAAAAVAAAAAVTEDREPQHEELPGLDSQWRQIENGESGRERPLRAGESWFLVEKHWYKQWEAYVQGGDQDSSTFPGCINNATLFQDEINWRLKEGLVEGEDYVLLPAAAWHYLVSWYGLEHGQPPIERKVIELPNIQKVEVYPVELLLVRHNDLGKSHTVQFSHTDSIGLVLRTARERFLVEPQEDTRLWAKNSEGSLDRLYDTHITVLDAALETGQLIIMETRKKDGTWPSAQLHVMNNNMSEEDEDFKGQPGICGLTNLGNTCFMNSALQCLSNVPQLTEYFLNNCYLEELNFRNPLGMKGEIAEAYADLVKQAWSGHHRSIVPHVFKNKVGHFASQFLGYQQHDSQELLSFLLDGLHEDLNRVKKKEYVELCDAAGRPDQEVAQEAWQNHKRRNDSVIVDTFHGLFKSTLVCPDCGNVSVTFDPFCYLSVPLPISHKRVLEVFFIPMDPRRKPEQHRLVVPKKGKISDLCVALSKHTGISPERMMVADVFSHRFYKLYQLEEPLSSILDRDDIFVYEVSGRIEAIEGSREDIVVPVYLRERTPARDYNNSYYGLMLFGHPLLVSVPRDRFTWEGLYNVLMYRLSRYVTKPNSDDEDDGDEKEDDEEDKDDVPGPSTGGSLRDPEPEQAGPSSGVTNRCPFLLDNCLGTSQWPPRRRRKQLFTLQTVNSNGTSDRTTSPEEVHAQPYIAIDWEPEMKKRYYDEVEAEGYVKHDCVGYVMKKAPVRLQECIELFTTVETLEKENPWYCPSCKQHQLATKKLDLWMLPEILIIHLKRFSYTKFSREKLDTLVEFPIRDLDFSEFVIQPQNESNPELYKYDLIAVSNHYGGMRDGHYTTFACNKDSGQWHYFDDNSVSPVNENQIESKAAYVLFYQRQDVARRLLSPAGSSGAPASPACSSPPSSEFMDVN

Usually Kd stands for the constant that tells how readily two partners part at equilibrium.

USP33 zf-UBP domain (human), sequence (Q8TEY7 whole entry, the tested form may be a part): as the sequence (Q8TEY7 whole entry, the tested form may be a part) above
USP20 zf-UBP domain (human), sequence (Q9Y2K6 whole entry, the tested form may be a part): as the sequence (Q9Y2K6 whole entry, the tested form may be a part) above

B1: CEP192 2073-2087 peptide (peptide)
peptide: Ac-YLQPSSKASLESTSDL-NH2
Take B1: the results for the Kd in test [1] and in test [2] were 37.1 µM and 14.1 µM, respectively.

B2: ROBO1_(1495-1506) peptide (peptide)
peptide: Ac-AQSKTQLEVRPV-NH2
For the molecule B2, the Kd in test [3] is 82 µM; in test [4], 14 µM.

B3: CCP110 582-593 peptide (peptide)
peptide: Ac-YEKVKRRLDLDID-NH2
Take B3: the Kd in test [1] is 505 µM; in test [2] it was 260 µM.

B4: USP19 874-888 peptide (peptide)
peptide: Ac-YPFQPGRMALESQSPG-NH2
Regarding B4, the Kd was found to be 162 µM in test [1] and 40.6 µM in test [2].

B5: ORAI1 48-63 peptide, unlabelled (peptide)
peptide: Ac-SAVTYPDWIGQSYSEV-NH2
In test [5], B5 gave a Kd of 207 µM.

B6: IRAG1 302-316 peptide (peptide)
peptide: Ac-YTNSSGKMALNSPQPG-NH2
On to B6, for which the Kd came to 9.02 µM in test [1] and 7.86 µM in test [2].
